Data reported in patent US20150368353A1.

Target: podoplanin on human brain tumor cells (glioblastoma and medulloblastoma cells and xenografts) (human) (UniProt Q86YL7)
Assay: cell-based or functional assay

dsNZ-1-PE38KDEL immunotoxin (scFv) gave an IC50 of cytotoxicity (inhibition of protein synthesis, 3H-leucine incorporation) of 0.5 to 6.9 ng/mL.
